The data set in a line: yeast display, Sf9 membrane polyspecificity reagent, FACS + sequencing; frameworks hold sequencing errors. The method, boiled down:
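Genes from sorted yeast were amplified by colony PCR, read by MiSeq 2 × 250 sequencing and filtered on CDR length. These cells carried a synthetic nanobody library in Saccharomyces cerevisiae BJ5465 and were sorted by FACS into low and high (top ~1%) gates on anti-HA and streptavidin fluorescence. Polyreactivity is labelled according to the gate of origin.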
As to “QVQLEESGGGLEQAGGSLRLSCAATGSIFNFYAMAWYIRAPGKERELVAAITRSGGSTYYADSVKGRFTISRDNAKNTVYLQMNSLIPEDTAVYYCSAASRKRTSREPLDYWGQGTQVTVSS”, the “polyreactivity (PSR sort gate)” value is reported as “high polyreactivity”.
For the sequence “QVQLEESGGGLFQAGGSLRLSCAASGTTQNGYTMGWYRQAPGKEREMVATINRGSSTHYADSVKGRFTISRDNAKNTVYLQMNSLKPEDTAVYYCNKRYPLGTEYYYLGQGTQVTVSS”, the “polyreactivity (PSR sort gate)” value is reported as “high polyreactivity”.
On to “QVQLEESGGGLGQAGGSLRLSCAASGSTFTVNGKGWYRQPPGKERELVASITWSGGSTYYADSVKGRFTLSRDNAKYTVYLQMNSLKPEDTAVYYCAADEKLYITGYDYWGQGTQVTVSS”, for which the “polyreactivity (PSR sort gate)” value is reported as “low polyreactivity”.
With “QVQLEESGGGLLKEGGSLRLSCAASGFTFDGYAMGWYRQAPGKERELVAVITSGGSTKYADSVKGRFTISRDNAKNTVYLQMNSLKPEVTAVYNCNVVGGRYLYSAYDYWGHGTQVTVSS” the entry was “low polyreactivity”; with “QVQLEESGGGLVKAGGSIRLSCAASGLIFYSYAMVWYRHAPGKERELVAVITRSGGNTNYADSVKGRFTISRDNAKNTVYLQMNSRKPEDTAVYYCATRGIWKKVPYYYWGQGTQVTVSS”, “high polyreactivity”.
The result for “QVQLEESGGGLVKAGGSLSLSCAASGRTFYSYAMGWYRQAPGKERELVAAISAGGSTYYADSVQGRFTSSRDNAMNTLNLQMTSLKPEDTAVYYCAATYSYYYARYHYWGQGTQVTVSS” reads “high polyreactivity”; that for “QVQLEESGGGLVQAGASHRLSCAASGITFYWYAMGSYRQAPGKERELVAGISQSGSLTYYADSVKRRFTISRDNAKNTVYLQMKSLKPEDSAVYYCAARVRWSPSRTFEYWGQGSQVTVSS”, “high polyreactivity”; that for “QVQLEESGGGLVQAGASLRLSCAASGRTIAHYAMGWYRQAPGKERELVAAITRGGGTYYADSVKGRFTISRDNAKHSVYLQMNSLKPEDTAVYYCAADHSRYGYPAKTMDYWGQCTQVTVSS”, “low polyreactivity”.
In the case of “QVQLEESGGGLVQAGASLRLSCDASGSIFKKYAMGWYRPAPGKEWELVPAITRGTYYADSVKGRFTISRDNAKNTVYLQMNSLKPEDTAVYYCNREFWGRGYYRVRGEYDYWGQGTQVTVSS”, the “polyreactivity (PSR sort gate)” value was “low polyreactivity”.
For the sequence “QVQLEESGGGLVQAGGRLRLSCAASGIIFEYYAMGGYRQAPGTERELVAAIFSGGSTYYADSVKGRFTISGDNAKNNVYLQMNSLKPEDTAVYYCAADYFAWGQGTQVTVSS”, the “polyreactivity (PSR sort gate)” value is on record as “high polyreactivity”.
As for “QVQLEESGGGLVQAGGRLRLSSAASGRTFMPNGMGWYRQAPGKERELVAAISWRGGSTYYADSVKGRFTISRDNAKNTVYLQMNSLKPEDTAVYYCNARVSRQYDYWGQGTEVTVSS”, the “polyreactivity (PSR sort gate)” value was “low polyreactivity”.
On to “QVQLEESGGGLVQAGGSHRLICAASGSTFEYYAMGWYRQAPGKERELVAAINGIGGSTTYADSVKGRFTISRDTAKYTVYLQMNSLKPEDTAVYYCNADVARSKSQASAYDYWGQGTQVNVSS”, for which the “polyreactivity (PSR sort gate)” value is given as “low polyreactivity”.
As to “QVQLEESGGGLVQAGGSHRLSCAASGSTIYAYTMGWYRQAPGKERELVARISGRGGSTYYADSVKGRFTISRDNAKNTVYLQMNSLKQEDTAVYYCAARRKFDYWGQGTQVTVSS”, the “polyreactivity (PSR sort gate)” value is on record as “high polyreactivity”.
With “QVQLEESGGGLVQAGGSLPLSCASSGRIFCVYAMGWYRQAPGKESELVATITSGGSTSYADSVKGRFTISRDNANYTVYLLMNSLKPEDTAVYYCNGPYSFFWQQMNYWGHGTQVTVSS” the entry was “low polyreactivity”.
Turning to “QVQLEESGGGLVQAGGSLRISCSASGFNFRYYTMGWYRQAPGKERELVAAITSRGGSTYYADSLKGRFTISRDIAKNTVYLQMNSLKPEDTAVYYCATTSWGYEYWGQGTEVTVSS”, the “polyreactivity (PSR sort gate)” value was “high polyreactivity”.
Consider “QVQLEESGGGLVQAGGSLRLICAASGIIFYVNAMGWYRQAPGKERELVAAITFGGDSTYYADSVKGRFTISRDNAKNTVYLQMNSLKPEDTAVYYCATDGDPAYPEMEYWGQGTQVTVSS”, for which the “polyreactivity (PSR sort gate)” value is reported as “low polyreactivity”.
For “QVQLEESGGGLVQAGGSLRLICAASGRTCGSNTMGWYRQAPGKERELVAASTISCGSTYYADSVKGRFTFSRDNAKNTVYLQMNSLKPDVTALDYCATRLWGQGGGRTTSYMYYWGQGTQVTVSS”, the “polyreactivity (PSR sort gate)” value is “high polyreactivity”.
The result for “QVQLEESGGGLVQAGGSLRLSCAACGSIFDNYAMGWYRQAPGKERELVAVISKRGGRTYYADSVKGRFTISRDNAKNTVYLQMNSLKPEDTAVYYCANGGQGSTPTSAWAKYDYWVQGTQVTVSS” reads “high polyreactivity”; that for “QVQLEESGGGLVQAGGSLRLSCAASGFIFAFNAMGWYRQAPGKEREMVATISWNDGGTYYADSVKGRFTISRDNAKNTVYLEMNSLKPEDTAVYYCAADWYLYLDDKYDYWGQGTQVTVSS”, “low polyreactivity”.
For the sequence “QVQLEESGGGLVQAGGSLRLSCAASGFIFDSYAMGWYRQAPGKERELVAAISWSGGRTYYADSVKGRFTISRDNAKNTVYLQMNSLKPEDTAVYYCNVLVHSLSGRKYDYWGQGTQVTVSS”, the “polyreactivity (PSR sort gate)” value is on record as “high polyreactivity”.
Take “QVQLEESGGGLVQAGGSLRLSCAASGFTFYYYTMGWYRQAPGKERELVAAITWRGGSTNYADSVKGRFTISRDNAKNTVYLQMNSLKPEEPAVYYCAAVTYWFWPGMDYWGQGTQVTVSS”: the “polyreactivity (PSR sort gate)” value is reported as “low polyreactivity”.
“QVQLEESGGGLVQAGGSLRLSCAASGFTLEYYAMGWYRKAPGKERELVAVITESDGNTYYADSVKGRFTISRDNAKNTVYLQMNSLKPEDTAVYYCAAEYRDGYRFSYDYWGQGTQVTVSS”: the “polyreactivity (PSR sort gate)” value was “low polyreactivity”.
For the sequence “QVQLEESGGGLVQAGGSLRLSCAASGGIFIFYAMGWYRQAPGKERELVAAISNVSSTNYADSVKGRFTISRDNAKNSVYLQMNSLKPEDTAVYYCNAVGVPSEYYSWGHGTQVTVSS”, the “polyreactivity (PSR sort gate)” value is on record as “low polyreactivity”.
For the sequence “QVQLEESGGGLVQAGGSLRLSCAASGGIFWYNAMGWYRQAPGKERELVADISSSGITYYADSVKGRFTISRDNAKNTVYLQMNSLKPEDTAVYYCAADSTTRPGLRVYDDYDYWGQGTQVTVSS”, the “polyreactivity (PSR sort gate)” value is reported as “low polyreactivity”.
In the case of “QVQLEESGGGLVQAGGSLRLSCAASGGTFLAYALGWYRQAPGKERELVATITSGGSTNYADSVKGRFTISRDNAKNTVYLQMNSLKPEDTAVYYCAASGRDFIAESPYDYWGQGTQVTVSS”, the “polyreactivity (PSR sort gate)” value is “low polyreactivity”.
Consider “QVQLEESGGGLVQAGGSLRLSCAASGIIIRYYAMGWYRQAPRKERELVDSITARSGSTYYADSVKGRFSISRDYAKNTVYFQMNSLKPEDTAVYYCAKSGKPARYYYWGQGTQVTVSS”, for which the “polyreactivity (PSR sort gate)” value was “high polyreactivity”.
As to “QVQLEESGGGLVQAGGSLRLSCAASGITFSLYVMGWFRPAPGKESELVATISFNVASTYADSVKGRFTISRVNAKNTVYLQMYSLTPEDTAVYYCNADTYWYRDSRYDYCGQGTQVTVSS”, the “polyreactivity (PSR sort gate)” value is given as “low polyreactivity”.
In the case of “QVQLEESGGGLVQAGGSLRLSCAASGITIWGYTMGWYRQAPGKERELVAAITSTGSTYYADSVKGRFTISRDNAKNTVYLQMNSLKPEDTSVYYCAATRGSSEYYYWGQGTQVTVSS”, the “polyreactivity (PSR sort gate)” value was “low polyreactivity”.
With “QVQLEESGGGLVQAGGSLRLSCAASGLIFGWYAMGWYRQAPGKERELVAAISRRGGSTYYADSVKGRFTISRDNAKNSVFLQMNSLKPEDTAVYYCNADTYGDSYDYWGQGTQVTVSS” the entry was “high polyreactivity”; with “QVQLEESGGGLVQAGGSLRLSCAASGLTFPSNDMGCYRQAPGKERELVAASSKRGGRTYYADYVKGRFTISRDNAKNTVYLQMNSLKPEDTAVYYCATPYAFPGTVQYAGYNYWGQGTQVTVSS”, “high polyreactivity”; with “QVQLEESGGGLVQAGGSLRLSCAASGLTFSRYAMGSYRQATGKERELVAAISIRGGNTYYADSVKGRFTISRDNAKNTVYLQMNSLKPEDTAVYYCNAVVYHYTLDHEYDYWGQGTQVTVSS”, “high polyreactivity”.
Regarding “QVQLEESGGGLVQAGGSLRLSCAASGLTFVQYTMGWYRQAPGKERELVAVITSASSTNYADSVKGRFTISRDNAKNTVYLQMNSLKPEDPAVYYCNATTYPYYTNSYQYEYWGQGTQVTVSS”, the “polyreactivity (PSR sort gate)” value is listed as “low polyreactivity”.
Consider “QVQLEESGGGLVQAGGSLRLSCAASGLTFVYNTMGMYRQAPGKERELVAAINWSGGRTYYADSVKGRFTISRDNAKNTVYLQMNSLKPEDTAVYYCAALYVPNTPTYKYDYWGQGTQVTVSS”, for which the “polyreactivity (PSR sort gate)” value was “low polyreactivity”.
As to “QVQLEESGGGLVQAGGSLRLSCAASGLTIFVNAMGWYRQAPGKERELVATISGGGSTYYADSVKARFTISRDNAKNTVYLQMNSLKPEDTAVYYCATVWPHRFRYEYWGQGTQVTVSS”, the “polyreactivity (PSR sort gate)” value is reported as “low polyreactivity”.
On to “QVQLEESGGGLVQAGGSLRLSCAASGNILFKYAMGWNRQAPGKERELVASITSRGGSTYYADSVKGRFTISRDNAKNTVYLQMNSLKPEDTAVYYCAVDADEVTFDYWGQGTQVTVSS”, for which the “polyreactivity (PSR sort gate)” value is on record as “low polyreactivity”.
Take “QVQLEESGGGLVQAGGSLRLSCAASGNTFPGYAMGWYRQAPGKERELVARISRSGGSTYYADSVKGRFTISRDNAKKTVYLQMNSLKPEDTAVYYCAAGAYRSGGYSFDYWGQGTQVTVSS”: the “polyreactivity (PSR sort gate)” value is “low polyreactivity”.
With “QVQLEESGGGLVQAGGSLRLSCAASGNTFTEYAMGWYRPAPGKEWELVASITGSGGSTYADSVKGRFTISRDNAKNSVYLQMNSLIAEDTAVYYCAKDTRYEYVGSEYGYWGQGTQVTVSS” the entry was “low polyreactivity”; with “QVQLEESGGGLVQAGGSLRLSCAASGRIFATNAMGWYRPAPATERELVAAISSSGGPTYYADSVKGRFTISRDNAKNTVYLQMNSLIREATAVYYCARVPITNDQYSHYYYWGQGTQVTVSS”, “high polyreactivity”; with “QVQLEESGGGLVQAGGSLRLSCAASGRIFGINALGWYRQAPGQERALVAAISRSGSRTYYADSVKGRFTISRDNAMNTVYLQMNSLKPEDTALYYCNARHQRFYAQPGDYWGQGTQVTVSS”, “high polyreactivity”.
Consider “QVQLEESGGGLVQAGGSLRLSCAASGRIFGWYTMGWYRQAPGKERELVAAINFSGSRTYYADSVKGRFTISRDNAKNTVYLQMNSLKPEDTAVYYCNAVYHQFREEYWGQGTQVTVSS”, for which the “polyreactivity (PSR sort gate)” value was “high polyreactivity”.
For “QVQLEESGGGLVQAGGSLRLSCAASGRIFGYYDMGWYRQAPGKERELVARITRGGGTTYYADSVKGRFTISRDNAKNTVYLQMNSLKPEDTAVYYCAAVRSWWHTHYNYDYWGQGTQVTVSS”, the “polyreactivity (PSR sort gate)” value was “high polyreactivity”.

Values taken from the nanobody polyreactivity screen of Harvey et al. (2022).
